A word on the Kd: it is the equilibrium constant for the complex coming apart.

Among the data in article PMC9491697 (PNAS Nexus, 2022) are Kd values, retold here.

Assay [1] concerns the target T1, human E-cadherin ectodomain EC1–5 with Twin-Strep and 8His tags (used for BLI) (Homo sapiens).
T1 construct: the range counts on the precursor; also called E-cadherin used for BLI; source: Expi293, transfected, purified from culture supernatant (StrepTactin XT)
T1 chain: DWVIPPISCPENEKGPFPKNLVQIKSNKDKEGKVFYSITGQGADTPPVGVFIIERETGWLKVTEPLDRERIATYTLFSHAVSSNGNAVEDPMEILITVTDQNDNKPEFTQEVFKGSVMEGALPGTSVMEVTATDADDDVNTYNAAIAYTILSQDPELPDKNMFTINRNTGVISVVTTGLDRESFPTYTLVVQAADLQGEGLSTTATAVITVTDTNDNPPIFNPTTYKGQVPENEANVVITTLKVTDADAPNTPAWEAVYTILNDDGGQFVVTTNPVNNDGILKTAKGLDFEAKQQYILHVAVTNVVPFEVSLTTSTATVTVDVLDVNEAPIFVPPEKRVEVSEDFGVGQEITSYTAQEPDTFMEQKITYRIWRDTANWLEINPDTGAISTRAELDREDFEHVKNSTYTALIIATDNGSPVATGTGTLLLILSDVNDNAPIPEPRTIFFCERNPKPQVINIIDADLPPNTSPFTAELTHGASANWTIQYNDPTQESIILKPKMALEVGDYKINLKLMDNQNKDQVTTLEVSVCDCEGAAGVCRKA
Nature of the assay: BLI; method taken from the construct description (E-cadherin used for BLI had an additional 8His tag); format and conditions not shown. The following applies: both partners purified. A general note: BLI is a label-free optical method that tracks binding on a fibre tip over time.

In assay [2] the target is T2, human E-cadherin EC1-5-TwinStrep-8His (Homo sapiens, UniProt P12830).
T2 construct: human E-cadherin extracellular domains EC1-5, residues 155 to 698; also called hEC1-5-TS-8His; hE-EC15-TS-8H; source: Expi293, transfected, purified from supernatant (StrepTactin XT); not shown: Twin-Strep, C-terminal, kept; 8His, C-terminal, kept
Nature of the assay: BLI; E-cadherin EC1-5-TwinStrep-8His loaded on Ni-NTA sensors; Fabs in a 1:3 dilution series; Octet Red96, 23°C, 1000 rpm; 50 mM Tris pH 8.0, 150 mM NaCl, 3 mM CaCl2, 0.25 mg/mL BSA, 0.005% Tween-20; 1:1 binding global fit. The following applies: both partners purified.

Several values for one entry are separate records, joined by “and”; a condition that tells them apart may be missing. Identical values can stand only once.

B1: 19A11 Fab (activating antibody to human E-cadherin) (Fab, V domains shown)
VH: QVQLKESGPGLVAPSQSLSITCTVSGFSLSRYGVHWVRQPPGKGLEWLGMMWGGGNTDYNSALKSRLSISKDNSKSQVFLKMNSLQTDDTAMYYCASSNYVLGYAMDYWGQGTSVTVSS
VL: DIVMTQSPSSLAMSVGQKVTMNCKSSQSLLNSSNQKNYLAWYQQKPGQSPKLLIYFTSTRGSGVPDRFIGSGSGTDFTLTISSVEAEDLADYFCQQHYRTPHTFGGGTKVEIK
notes: The 6His form was used for the crystal complex; Purified on a murine kappa light chain resin; also called 19A11-6His Fab; source: ExpiCHO, transfected, purified (CaptureSelect LC-kappa (mur) and Ni-NTA, or StrepTactin XT); ConA-cleared for crystallography
With B1, the dissociation constant Kd in assay [1] was around 6.5 nM.

B2: 66E8 Fab (Fab, V domains shown)
VH: EVQLQQSGPELVKPGASVKISCKASGYSFTGYFMNWVKQSHGKSLEWIGRINPYNGDTFYKQRFKGKATLTVDKSSSTVHMDLLSLTSEDSAVYYCGRGNYYFDYWGQGTTLTVSS
VL: DVQITQSPSYLAASPGETITINCRTSKNISKYLAWYQEKPGKTNKLLIYSGYTLQSGIPSRFSGSGSGTDFTLTISSLEPEDFAMYYCQQHNEYPYTFGGGTKLEIK
notes: heavy chain of the 66E8 Fab in PDB 6VEL; light chain of the 66E8 Fab in PDB 6VEL; Fab as used in BLI and analytical SEC; source: ExpiCHO, transfected, purified
Regarding B2, the dissociation constant (Kd) in assay [2] is 90.1 nM and 96.5 nM and 91.8 nM and 92.8 nM.

B3: 66E8 Fab (activating antibody to human E-cadherin) (Fab, V domains shown)
VH: B2 VH
VL: B2 VL
notes: source: ExpiCHO, transfected, purified (CaptureSelect LC-kappa (mur) and Ni-NTA, or StrepTactin XT); kifunensine and Endo Hf for crystallography
With B3, the Kd in assay [1] was around 100 nM.
